Assay results published in patent publication US20240294604A1.

What was measured:
Details in all cases: remark: other sources report otherwise
[1] = biological target: T1, A Proliferation Inducing Ligand (APRIL) (human), O75888; assay: flow cytometry titration of soluble APRIL on yeast displaying BCMA; one site specific binding fit; A.U. from the axis 'Cell binding (A.U.)'
T1 chain: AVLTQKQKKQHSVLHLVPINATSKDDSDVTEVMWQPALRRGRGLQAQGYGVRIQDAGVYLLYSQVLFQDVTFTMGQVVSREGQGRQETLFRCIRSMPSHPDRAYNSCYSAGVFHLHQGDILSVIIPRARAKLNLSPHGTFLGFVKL

BAFF = assay: cell binding titration by flow cytometry; soluble BAFF varied to 10 nM on cells displaying the BCMA clone; Kd and BP printed as N.D
[2] = biological target: T1, A Proliferation Inducing Ligand (APRIL) …; assay: flow cytometry titration of soluble APRIL (about 0.0005 to 10 nM) on yeast displaying BCMA; one site specific binding fit, nM is the unit of the concentration axis
[3] = biological target: T1, A Proliferation Inducing Ligand (APRIL) …; assay: cell binding titration by flow cytometry; soluble APRIL varied to 10 nM on cells displaying the BCMA clone
[4] = biological target: T1, A Proliferation Inducing Ligand (APRIL) …; assay: cell binding titration by flow cytometry; soluble APRIL varied to 10 nM on cells displaying the BCMA clone; BP is not defined in the filing
[5] = biological target: T1, A Proliferation Inducing Ligand (APRIL) …; assay: binding assay of FIG. 1 (flow cytometry titration, one-site specific binding fit; format not stated); Example 4 results, unit printed µM
[6] = biological target: T1, A Proliferation Inducing Ligand (APRIL) …; assay: binding assay of FIG. 1 (flow cytometry titration, one-site specific binding fit; format not stated); FIG. 1 legend, unit printed pM

Bmax [1]: 9930 A.U.
Bmax (BAFF): 78.3 A.U.
Kd [2]: 0.0323 nM
Bmax [3]: 6560 A.U.
Kd [3]: 0.025 nM
BP [4]: 263
Kd [5]: 0.032 nM
Kd [6]: 0.032 nM
B1: wild type human BCMA extracellular domain (sBCMA WT ECD), Q02223 1-54 (receptor)
chain: MLQMAGQCSQNEYFDSLLHACIPCQLRCSSNTPPLTCQRYCNASVTNSVKGTNA
